Data published in paper PMC12260524, “Identification of a VPS29 isoform with restricted association to Retriever and Retromer accessory proteins through autoinhibition” (Proceedings of the National Academy of Sciences of the …, 2025).

Target: T1, GST-tagged VPS29C (Homo sapiens, UniProt Q9UBQ0)
T1 construct: made in house; host or cells: E. coli BL21 (DE3)
Assay: Isothermal titration calorimetry (ITC) of peptides with GST-VPS29C
Type: binding
Conditions: 25 °C, single-site model
Experimental: All the bacterial constructs were expressed in BL21 (DE3) competent cells using the standard autoinduction method as described previously. Cell cultures were harvested by centrifugation at 6,000 × g for 5 min at 4 °C and the cell pellets were then stored at −80 °C until cell lysis. To obtain individual Retromer subunit including VPS26A, GST-VPS29B, and GST-VPS29C, the frozen cell pellet was resuspended in protein buffer (50 mM Tris-HCl pH 7.5, 200 mM NaCl, 2 mM β-mercaptoethanol) supplemented with 50 μg/mL benzamidine, 100 units of DNase I. In all cases, the resuspended cells were lysed through a Constant System TS-series high pressure cell disruptor. The soluble homogenate cleared by centrifugation was loaded onto either Talon resin (Clontech) for His-tagged VPS26A or Glutathione Sepharose (GE Healthcare) for GST-tagged VPS29B/VPS29C. The fusion-tagged containing proteins eluted from the resin were then further purified using size exclusion chromatography (SEC) on a HiLoad® 16/600 Superdex 200 or Superdex 75 column equilibrated with protein buffer. For Retromer, the soluble homogenate was first loaded onto Talon resin (Clontech) followed by glutathione Sepharose (GE healthcare) to obtain the correct stoichiometry ratio of the Retromer complex. Removal of the GST tag from the constructs was performed using an on-column cleavage approach with PreScission protease. The fusion tag free protein was further purified using SEC on a HiLoad® 16/600 Superdex 200 column as described above. Protein integrity was validated using SDS-PAGE gel and concentration was measured using Nanodrop at OD280.
All microcalorimetry experiments were carried out at 25 °C using a PEAQ ITC (Malvern, UK) in protein buffer. […] In the macrocyclic peptide experiment, the equivalent percentage (v/v) of DMSO was added into the target protein to avoid buffer mismatch. All ITC experiments were performed with a single injection of 0.4 μL followed by a series of 12 injections of 3.2 μL each, spaced 180 s apart, and stirred at 750 rpm. To calculate the heat exchange of interactions, the observed peaks were integrated with the subtraction of heat of dilution from the background. The thermodynamic parameters including Kd, ΔH, ΔG, and −TΔS were obtained by fitting and normalizing the data to a single-site binding model using Malvern software package. The stoichiometry was adjusted initially, and if the value was near 1, N was set to exactly 1.0 for computation. To ensure the data were reproducible, each experiment was run at least twice.

[1] = 300 μM peptide into 10 μM GST-VPS29C

Substance	Kd (300 μM peptide titrated into 10 μM GST-VPS29C, protein buffer (50 mM Tris-HCl pH 7.5, 200 mM NaCl, 2 mM β-mercaptoethanol), each experiment run at least twice)	-TΔS [1] [kcal/mol]	ΔG [1] [kcal/mol]	ΔH [1] [kcal/mol]
VPS35L 28-37: natural peptide of the amino-terminal region of VPS35L containing a Pro-Leu motif (EFGDYHPLKP)	No binding detected			
VPS35L 16-38: natural peptide of the amino-terminal region of VPS35L containing a Pro-Leu motif (EFASCRLEAVPLEFGDYHPLKPI)		4.26 ± 2.04	-5.26 ± 0.15	-9.54 ± 2.50
